Results reported in IntAct's records for PubMed 23770679.

B1: Microtubule protein alp7 (Schizosaccharomyces pombe (strain ATCC 38366 / 972)), Q9URY2 (parent)
chain: MSDIVSSSTDYSRRSPSSSSIGTNETDHTGFHEKRQGASSESLIPPAQRSSEESMPAPKLFPKLTSKPNPQLNLKDTLNKRVSDRLQALELNKSFDFSGTPRPMHPISHPLSQHKTPEFKHRKRNVESILTPKNPSLFSSSNAASQRGSLNTAPSNFAYSHSSSLQTSASSRPPVLSNGSFPRQTNTAPLNPPVHLKDNIRNSATPSTSQADIPTQYPINSTQKQQAKYEAEIEGYKAKLAGTYHEISVLQNTIVNVSGQLIAVNDQLQQLRSGKASTSPSTKDTNMRLVEGHNEETLALQRGKYTQEEVDKLIQERMEKVAEDLHAQYSAKHTQKINAFKANYARKYEATIQELQNQIGTAPNAPKISNSNWEEERRALKADNQTLQKQLEKAIQERQDMSDFLNNFKADMAKSDKLLMQQQSQQTGDLETLRLQLQALQEELRVEREERQQLIQMSEDLVIAMDQLNLEQKS
partner: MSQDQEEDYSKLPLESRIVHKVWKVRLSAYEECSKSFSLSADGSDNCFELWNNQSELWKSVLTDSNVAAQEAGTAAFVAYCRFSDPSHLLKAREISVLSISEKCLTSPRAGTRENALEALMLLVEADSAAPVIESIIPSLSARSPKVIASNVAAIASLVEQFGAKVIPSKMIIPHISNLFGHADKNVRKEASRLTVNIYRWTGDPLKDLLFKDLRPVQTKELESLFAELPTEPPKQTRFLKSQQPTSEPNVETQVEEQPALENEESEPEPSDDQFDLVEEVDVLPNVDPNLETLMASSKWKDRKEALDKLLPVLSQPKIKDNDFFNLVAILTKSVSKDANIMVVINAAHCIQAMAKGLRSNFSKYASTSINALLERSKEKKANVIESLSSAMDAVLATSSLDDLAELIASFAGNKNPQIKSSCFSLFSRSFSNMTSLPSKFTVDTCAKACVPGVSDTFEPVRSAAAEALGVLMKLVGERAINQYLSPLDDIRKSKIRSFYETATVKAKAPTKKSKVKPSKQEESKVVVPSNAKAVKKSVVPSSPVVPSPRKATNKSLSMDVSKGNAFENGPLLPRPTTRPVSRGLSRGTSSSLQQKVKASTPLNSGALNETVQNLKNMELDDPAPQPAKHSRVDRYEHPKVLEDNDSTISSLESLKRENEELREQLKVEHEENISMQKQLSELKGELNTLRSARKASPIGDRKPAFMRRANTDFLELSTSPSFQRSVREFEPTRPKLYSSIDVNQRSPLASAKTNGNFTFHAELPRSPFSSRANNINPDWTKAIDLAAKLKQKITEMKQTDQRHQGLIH
B2: Microtubule protein alp7 (Schizosaccharomyces pombe (strain ATCC 38366 / 972)), Q9URY2 (parent)
chain: B1 chain
partner: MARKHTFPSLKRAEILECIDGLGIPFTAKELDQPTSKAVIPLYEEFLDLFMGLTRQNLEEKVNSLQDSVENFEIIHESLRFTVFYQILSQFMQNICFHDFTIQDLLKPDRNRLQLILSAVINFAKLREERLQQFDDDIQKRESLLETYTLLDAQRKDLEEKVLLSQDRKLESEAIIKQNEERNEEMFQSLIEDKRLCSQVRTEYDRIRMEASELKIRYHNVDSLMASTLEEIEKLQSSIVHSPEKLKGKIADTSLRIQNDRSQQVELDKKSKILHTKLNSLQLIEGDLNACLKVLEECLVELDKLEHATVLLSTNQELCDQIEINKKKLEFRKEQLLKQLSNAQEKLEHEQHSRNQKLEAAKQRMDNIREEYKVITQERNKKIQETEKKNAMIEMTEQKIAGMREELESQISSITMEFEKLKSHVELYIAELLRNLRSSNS

Variants of: B1
Settings: with alp14_schpo alp14, O94534

Variant | effect of a mutation on the interaction
MSDIVSSSTDYSRRSPSSSSIGTNETDHTGFHEKRQGASSESLIPPAQRSSEESMPAPKLFPKLTSKPNPQLNLKDTLNKRVSDRLQALELNKSFDFSGTPRPMHPISHPLSQHKTPEFKHRKRNVESILTPKNPSLFSSSNAASQRGSLNTAPSNFAYSHSSSLQTSASSRPPVLSNGSFPRQTNTAPLNPPVHLKDNIRNSATPSTSQADIPTQYPINSTQKQQAKYEAEIEGYKAKLAGTYHEISVLQNTIVNVSGQLIAVNDQLQQLRSGKASTSPSTKDTNMRLVEGHNEETLALQRGKYTQEEVDKLIQERMEKVAEDLHAQYSAKHTQKINAFKANYARKYEATIQELQNQIGTAPNAPKISNSNWEEERRALKADNQTLQKQLEKAIQERQDMSDFLNNFKADMAKSDKLLMQQQSQQTGDLETLRLQLQALQEELRVEREERQQLIQMSEDAVIAMDQLNLEQKS [L461A] | disrupting interaction strength

Variants of: B2
Settings: with nuf2_schpo nuf2, Q10173

Variant | effect of a mutation on the interaction
MSDIVSSSTDYSRRSPSSSSIGTNETDHTGFHEKRQGASSESLIPPAQRSSEESMPAPKLFPKLTSKPNPQLNLKDTLNKRVSDRLQALELNKSFDFSGTPRPMHPISHPLSQHKTPEFKHRKRNVESILTPKNPSLFSSSNAASQRGSLNTAPSNFAYSHSSSLQTSASSRPPVLSNGSFPRQTNTAPLNPPVHLKDNIRNSATPSTSQADIPTQYPINSTQKQQAKYEAEIEGYKAKLAGTYHEIAVLQNTIVNVSGQLIAVNDQLQQLRSGKASTSPSTKDTNMRLVEGHNEEALALQRGKYTQEEVDKLIQERMEKVAEDLHAQYSAKHTQKINAFKANYARKYEAAIQELQNQIGTAPNAPKISNSNWEEERRALKADNQTLQKQLEKAIQERQDMADFLNNFKADMAKSDKLLMQQQSQQTGDLETLRLQLQALQEELRVEREERQQLIQMSEDLVIAMDQLNLEQKS [S248A;T297A;T351A;S402A] | disrupting interaction strength
